Changes are numbered by the printed parent chain. Names and notes keep the numbering of the source.
B1: hu2131_v8 (antibody, human IgG1, V domains shown)
VH: QVQLVQSGAEVKKPGASVKLSCKASGHTFTSYWMHWVKQAPGQGLEWIGNIYPGSGSINYDEKFQGRATLTVDTSTRTAYMELSSLRSEDTAVYYCLTMTGTSWGRGTLVTVSS
VL: DVQMTQSPSSLSVSVGDRVTITCQASQGTPINLHWFQQKPGKAPKLLISGASNLEDGVPSRFSGSRYGTDFTFTISSLQPEDIATYFCLQFTYIPWTFGQGTKLEIK
notes: Expressed as human IgG1 with P238D Fc mutation
B2: hu2131_v18 (antibody, human IgG1, V domains shown)
VH: B1 VH with L20V, K38R, I48M, A68V, L70M, V72A, R77S, A79V
VL: B1 VL
notes: as for B1
B3: hu2131_v1 (antibody, human IgG1, V domains shown)
VH: B1 VH with A9S, V11L, T91S
VL: B1 VL with I21M, D70A, F73L, P80D
notes: as for B1
B4: hu2131_v12 (antibody, human IgG1, V domains shown)
VH: B1 VH with L20V, K38R, A68V, L70M, R77S
VL: B1 VL with I21M, D70A, F73L
notes: as for B1
B5: hu2131_v5 (antibody, human IgG1, V domains shown)
VH: B1 VH with A9S, V11L, T91S
VL: B1 VL with V2I, R66G, Y67S, D70E, I83A, F87Y
notes: as for B1
B6: hu2131_v4 (antibody, human IgG1, V domains shown)
VH: B1 VH with A9S, V11L, T91S
VL: B1 VL with V2I, R66G, Y67S, F87Y
notes: as for B1
B7: hu2131_v17 (antibody, human IgG1, V domains shown)
VH: B1 VH with L20V, K38R, I48M, A68V, L70M, V72A, R77S, A79V
VL: B1 VL with I21M, D70A, F73L
notes: as for B1
B8: hu2131_v3 (antibody, human IgG1, V domains shown)
VH: B1 VH with A9S, V11L, T91S
VL: B1 VL
notes: as for B1
B9: hu2131_v19 (antibody, human IgG1, V domains shown)
VH: B1 VH with L20V, K38R, I48M, A68V, L70M, V72A, R77S, A79V
VL: B1 VL with V2I, R66G, Y67S, F87Y
notes: as for B1
B10: hu2131_v9 (antibody, human IgG1, V domains shown)
VH: B1 VH
VL: B1 VL with V2I, R66G, Y67S, F87Y
notes: as for B1
B11: hu2131_v2 (antibody, human IgG1, V domains shown)
VH: B1 VH with A9S, V11L, T91S
VL: B1 VL with I21M, D70A, F73L
notes: as for B1
B12: hu2131_v14 (antibody, human IgG1, V domains shown)
VH: B1 VH with L20V, K38R, A68V, L70M, R77S
VL: B1 VL with V2I, R66G, Y67S, F87Y
notes: as for B1
B13: hu2131_v10 (antibody, human IgG1, V domains shown)
VH: B1 VH
VL: B1 VL with V2I, R66G, Y67S, D70E, I83A, F87Y
notes: as for B1
B14: hu2131_v16 (antibody, human IgG1, V domains shown)
VH: B1 VH with L20V, K38R, I48M, A68V, L70M, V72A, R77S, A79V
VL: B1 VL with I21M, D70A, F73L, P80D
notes: as for B1
B15: hu2131_v11 (antibody, human IgG1, V domains shown)
VH: B1 VH with L20V, K38R, A68V, L70M, R77S
VL: B1 VL with I21M, D70A, F73L, P80D
notes: as for B1
B16: hu2131_v6 (antibody, human IgG1, V domains shown)
VH: B1 VH
VL: B1 VL with I21M, D70A, F73L, P80D
notes: as for B1
B17: hu2131_v15 (antibody, human IgG1, V domains shown)
VH: B1 VH with L20V, K38R, A68V, L70M, R77S
VL: B1 VL with V2I, R66G, Y67S, D70E, I83A, F87Y
notes: as for B1
B18: hu2131_v13 (antibody, human IgG1, V domains shown)
VH: B1 VH with L20V, K38R, A68V, L70M, R77S
VL: B1 VL
notes: as for B1
B19: hu2131_v7 (antibody, human IgG1, V domains shown)
VH: B1 VH
VL: B1 VL with I21M, D70A, F73L
notes: as for B1

Biological target: T1, monomeric soluble human CD200R extracellular domain (human, UniProt Q8TD46 29-265)
T1 construct: extracellular domain; also called hCD200R; monomeric CD200R protein
T1 sequence (looked up): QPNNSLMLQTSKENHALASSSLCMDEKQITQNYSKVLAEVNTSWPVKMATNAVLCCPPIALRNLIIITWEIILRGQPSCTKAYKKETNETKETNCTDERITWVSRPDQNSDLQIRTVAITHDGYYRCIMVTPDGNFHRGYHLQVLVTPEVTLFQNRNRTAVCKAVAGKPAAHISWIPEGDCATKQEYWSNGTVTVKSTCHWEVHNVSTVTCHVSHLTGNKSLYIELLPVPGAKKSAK
Assay: BLI (Octet), antibody on anti-human Fc probes, monomeric CD200R in solution, 25 C, 1:1 global fit
Procedure: Humanised variant antibodies combining the different heavy and light variable domains described in Example 6 were produced by transient transfection of HEK293 cells. All antibodies were expressed on a human IgGI isotype with a P238D Fc mutation. The unpurified supernatants were analysed by Protein A-HPLC to determine the antibody concentrations, as a measure of expression yield. […] Binding affinity of humanized variants to human CD200R was assessed by bio-layer interferometry on an Octet R4 instrument. Each antibody was captured directly onto anti-human Fc capture probes (Sartorius 18-5060) for 60 sec followed by baseline setting in assay buffer (DPBS, 0.01% Polysorbate-20). Association of monomeric CD200R protein to immobilised antibodies was measured in 4 different protein concentrations (300, 100, 30 and 10 nM in assay buffer) at 25° C., with an association time of 120s and dissociation of 120s in assay buffer only. A reference probe with no antibody immobilised was used for background subtraction. Kinetic rate constants and binding KDs were calculated using Octet Analysis Studio 12 software. Global curve fitting based on all 4 concentrations using a 1:1 model was performed, from which kon and koff were obtained to calculate KD using the relationship KD=koff/kon.

Row | Binder | Kd
1 | B1 | 3.18 pM
2 | B2 | 34.4 pM
3 | B3 | 3.63 pM
4 | B4 | 4.14 pM
5 | B5 | 5 pM
6 | B6 | 2.74 pM
7 | B7 | 183 pM
8 | B8 | 3.88 pM
9 | B9 | 4.23 pM
10 | B10 | 3.07 pM
11 | B11 | 3.84 pM
12 | B12 | 2.9 pM
13 | B13 | 4.43 pM
14 | B14 | 1.03 pM
15 | B15 | 2.45 pM
16 | B16 | 3.96 pM
17 | B17 | 3.18 pM
18 | B18 | 2.94 pM
19 | B19 | 3.06 pM
